Series [1] relates to U87MG cells with blocked transferrin receptors. The experiment in a line: T7 competition assay with or without exogenous cathepsin B on TfR-blocked U87MG cells. The following applies: 20 nM drug equivalents, exogenous cathepsin B added, 72 h, XTT, n = 4. How it is done:
In these studies, blocking was done as reported for the transferrin receptor blocking studies above. […] In an additional step, exogenous cathepsin B was added to the treated wells. In a parallel experiment, cells were treated with the same test agents at the same concentrations but without exogenous cathepsin B. XTT assays were conducted at 72 h following the manufacturer’s protocol for cytotoxicity. Percent cell viability was calculated, and the data were plotted using GraphPad Prism 10.
On the technique in general: Tetrazolium dyes change colour on reduction, which living cells bring about.

The nature of series [2]: XTT cytotoxicity on HEK-293 cells. As to the method:
(§1) HEK-293 cells (15,000/well), seeded in 96-well plates, were allowed to attach for 24 h. […] To evaluate cytotoxicity, XTT solution was added to each well at 24 and 72 h after treatment per manufacturer protocol. Following a 3-h incubation period, the absorbance of each well was measured at 450 nm using a Biotek ELx808 microplate reader (Lonza). Average absorbance values of the cells treated with different concentrations of test agents were normalized to those of untreated cell controls, and percent cell viability was plotted using GraphPad Prism 10.
(§2) IC50 values were calculated by concentration-response curve fitting using Microsoft Excel 16.77 (Microsoft Corp). Data represent mean ± standard deviation (SD) unless otherwise indicated. Differences between groups were determined by ANOVA, with a p-value < 0.05 deemed statistically significant.

The test system of series [3] is HEK-293 cells. The experiment in a line: XTT cytotoxicity on HEK-293 cells. The conditions noted are these: HEK-293 cells, 24 h, p < 0.05, n = 4. As to the method:
as §1, §2

Series [4] can be described thus: Control incubation of conjugate in enzyme-free buffer pH 6.0. Type of series: in vitro ADME. The following applies: pH 6.0, no cathepsin B, RP-HPLC, over 24 h. As to the method:
The cleavage profile of T7-SN-38-rucaparib was evaluated by following a published method. […] This mixture was added to 4.9 mL of reaction buffer (150 mM sodium acetate buffer, 12 mM EDTA, 24 mM DTT in H2O, pH 6.0). […] The reaction was allowed to proceed at 37 °C, and samples were taken and analyzed by RP-HPLC at predetermined intervals (0–24 h). Changes in peak areas of the pure drugs and conjugate at their characteristic retention times to observe the disappearance of T7-SN-38-rucaparib and the appearance of free SN-38 and rucaparib over a 24 h period were monitored.

A short description of series [5]: XTT cytotoxicity on U87MG cells. How it is done: U87MG cells (10,000 cells per well) were seeded in 96-well plates and allowed to attach for 24 h. […] To evaluate cytotoxicity, XTT solution was added to each well per manufacturer protocols at 24 and 72 h after treatment. Following a 3-h incubation period, the absorbance of each well was measured at 450 nm using a Biotek ELx808 microplate reader (Lonza, Basel, Switzerland). Average absorbance values of the cells treated with different concentrations of test agents were normalized to those of the untreated cell controls. GraphPad Prism 10 was used to plot percent cell viability.
U87MG cells (10,000/well), seeded in 96-well plates, were allowed to attach for 24 h. The cells, incubated at 37 °C, were then treated with rucaparib solution at concentrations ranging from 5 nM to 160 nM. To evaluate cytotoxicity, XTT solution was added to each well at 24 and 72 h after treatment per manufacturer protocol. Following a 3-h incubation period, the absorbance of each well was measured at 450 nm using a Biotek ELx808 microplate reader (Lonza). The average absorbance of the cells treated with different concentrations of rucaparib were normalized to those of untreated cell controls. […]
IC50 values were calculated by concentration-response curve fitting using Microsoft Excel 16.77 (Microsoft Corp). […] Differences between groups were determined by ANOVA, with a p-value < 0.05 deemed statistically significant.

Series [6] has as its target T1, human liver cathepsin B (Homo sapiens, UniProt P07858).
T1 construct: human liver cathepsin B stock (0.47 mg/mL, 324 U/mg, Merck Millipore); purchased Merck Millipore; host or cells: human liver (tissue-derived, as the product name says)
As to the kind of experiment: In vitro cleavage of T7-SN-38-rucaparib by exogenous cathepsin B (RP-HPLC). Type of series: in vitro ADME. The following applies: sodium acetate buffer with EDTA and DTT, pH 6.0, 37 °C, conjugate 210 µM, n = 3. How it is done:
The cleavage profile of T7-SN-38-rucaparib was evaluated by following a published method. Using this method, 11 μL of human liver cathepsin B stock (0.47 mg/mL, 324 U/mg, Merck Millipore) was activated in 27.2 μL of activation buffer (30 mM DTT, 15 mM EDTA in H2O) for 15 min. This mixture was added to 4.9 mL of reaction buffer (150 mM sodium acetate buffer, 12 mM EDTA, 24 mM DTT in H2O, pH 6.0). Cleavage was initiated by adding the cathepsin B solution to the T7-SN-38-rucaparib stock solution (8) in DMSO (final concentration 210 µM). The reaction was allowed to proceed at 37 °C, and samples were taken and analyzed by RP-HPLC at predetermined intervals (0–24 h). Changes in peak areas of the pure drugs and conjugate at their characteristic retention times to observe the disappearance of T7-SN-38-rucaparib and the appearance of free SN-38 and rucaparib over a 24 h period were monitored.

Some results are limits rather than exact numbers.

In the case of `CCc1c2c(nc3ccc(OCc4ccc(NC(=O)[C@H](C)NC(=O)[C@@H](NC(=O)CCCCCNC(=O)COCCOCCOCCNC(=O)CCCCC(=O)N5Cc6ccccc6-c6c(nnn6CCOCCOCCOCCOCCC(=O)N[C@@H](CSC6CC(=O)N(CCC(=O)NCCOCCOCCOCCOCCC(=O)NCCCCCC(=O)N[C@H](C(=O)N[C@@H](C)C(=O)Nc7ccc(COC(=O)N(C)Cc8ccc(-c9[nH]c%10cc(F)cc%11c%10c9CCNC%11=O)cc8)cc7)C(C)C)C6=O)C(=O)NCCOCCOCCOCC(=O)N[C@@H](Cc6c[nH]cn6)C(=O)N[C@@H](C)C(=O)N[C@H](C(=O)N[C@@H](Cc6ccc(O)cc6)C(=O)N6CCC[C@H]6C(=O)N[C@@H](CCCNC(=N)N)C(=O)N[C@@H](Cc6c[nH]cn6)C(=O)O)[C@@H](C)CC)-c6ccccc65)C(C)C)cc4)cc13)-c1cc3c(c(=O)n1C2)COC(=O)[C@]3(O)CC` (stereo partly drawn) [T7-SN-38-rucaparib], the “cytotoxicity with exogenous cathepsin B” value in series [1] is “comparable cytotoxicity to the cells treated with free drugs”. Moreover, the IC50 in series [2] came to 116 nM; in series [5], 22.3 nM. Moreover, the “cytotoxicity, conjugate versus free drugs” value in series [3] was “significantly lower cytotoxicity compared to free SN-38-rucaparib”. Besides, the “release of free drugs in enzyme-free buffer” value in series [4] is below 10%. In addition, the “Percent Cleaved” value is on record as 17.8% in series [6] (time 1 h), 43.8% in series [6] (time 4 h), 61.6% in series [6] (time 8 h) and 87.3% in series [6] (time 24 h).

The IC50 is the concentration needed to halve the response being measured. Low readings indicate greater potency, high ones weaker potency.
